The values that follow come from US20210246200A1 (UNIVERSIT T Z RICH, published 2021).

As usually defined, the EC50 is the concentration needed to bring the measured effect to its halfway point.

B1: Antibody No: 2 (antibody, human IgG1, kappa, N297A, V domains shown)
VH: EVQLVQSGAEVKKPGESLKISCKGSGYAFTNYLIEWVRQMPGKGLEWMGVINPGSGGTNYNEKFKGQVTISADKSISTAYLQWSSLKASDTAMYYCARWRGEGYYAYFDVWGQGTTVTVSS
VL: AIRLTQSPSSFSASTGDRVTITCKASQSVDYQGDSYLNWYQQKPGKAPKLLIYAASNLESGVPSRFSGSGSGTDFTLTISSLQSEDFATYYCQQSNEDPYTFGGGTKVEIKR
notes: VH WT; VK M33L; HEK293F supernatant
B2: Antibody No: 5 (antibody, human IgG1, kappa, N297A, V domains shown)
VH: B1 VH
VL: B1 VL with A54S
notes: VH WT; VK M33L + A50S; HEK293F supernatant
B3: Antibody No: 9 (antibody, human IgG1, kappa, N297A, V domains shown)
VH: B1 VH with F108Y
VL: B1 VL with L37M, A54T
notes: VK A50T; HEK293F supernatant
B4: Antibody No: 19 (antibody, human IgG1, kappa, N297A, V domains shown)
VH: B1 VH with N59Y, F108Y
VL: B1 VL with L37M, A54T
notes: VK A50T; HEK293F supernatant
B5: Antibody No: 7 (antibody, human IgG1, kappa, N297A, V domains shown)
VH: B1 VH with F108Y
VL: B1 VL
notes: VK M33L; HEK293F supernatant
B6: Antibody No: 10 (antibody, human IgG1, kappa, N297A, V domains shown)
VH: B1 VH with F108Y
VL: B1 VL with A54S
notes: VK M33L + A50S; HEK293F supernatant
B7: Antibody No: 22 (antibody, human IgG1, kappa, N297A, V domains shown)
VH: B1 VH with T30S, F108Y
VL: B1 VL
notes: VK M33L; HEK293F supernatant
B8: Antibody No: 21 (antibody, human IgG1, kappa, N297A, V domains shown)
VH: B1 VH with T30S, F108Y
VL: B1 VL with L37M
notes: VK WT; HEK293F supernatant
B9: Antibody No: 11 (antibody, human IgG1, kappa, N297A, V domains shown)
VH: B1 VH with N59Y
VL: B1 VL with L37M
notes: VH N58Y; VK WT; HEK293F supernatant
B10: Antibody No: 25 (antibody, human IgG1, kappa, N297A, V domains shown)
VH: B1 VH with T30S, F108Y
VL: B1 VL with A54S
notes: as for B6
B11: Antibody No: 4 (antibody, human IgG1, kappa, N297A, V domains shown)
VH: B1 VH
VL: B1 VL with L37M, A54T
notes: VH WT; VK A50T; HEK293F supernatant
B12: Antibody No: 16 (antibody, human IgG1, kappa, N297A, V domains shown)
VH: B1 VH with N59Y, F108Y
VL: B1 VL with L37M
notes: VK WT; HEK293F supernatant
B13: Antibody No: 14 (antibody, human IgG1, kappa, N297A, V domains shown)
VH: B1 VH with N59Y
VL: B1 VL with L37M, A54T
notes: VH N58Y; VK A50T; HEK293F supernatant
B14: Antibody No: 24 (antibody, human IgG1, kappa, N297A, V domains shown)
VH: B1 VH with T30S, F108Y
VL: B1 VL with L37M, A54T
notes: VK A50T; HEK293F supernatant
B15: Antibody No: 3 (antibody, human IgG1, kappa, N297A, V domains shown)
VH: B1 VH
VL: B1 VL with L37M, A54S
notes: VH WT; VK A50S; HEK293F supernatant
B16: Antibody No: 17 (antibody, human IgG1, kappa, N297A, V domains shown)
VH: B1 VH with N59Y, F108Y
VL: B1 VL
notes: VK M33L; HEK293F supernatant
B17: Antibody No: 18 (antibody, human IgG1, kappa, N297A, V domains shown)
VH: B1 VH with N59Y, F108Y
VL: B1 VL with L37M, A54S
notes: VK A50S; HEK293F supernatant
B18: Antibody No: 6 (antibody, human IgG1, kappa, N297A, V domains shown)
VH: B1 VH with F108Y
VL: B1 VL with L37M
notes: VK WT; HEK293F supernatant
B19: Antibody No: 23 (antibody, human IgG1, kappa, N297A, V domains shown)
VH: B1 VH with T30S, F108Y
VL: B1 VL with L37M, A54S
notes: VK A50S; HEK293F supernatant

Where a chain is given by its changes, count along the chain named. Numbers in names are those of the source.

The target of the first experiment is T1, Proleukin® (aldesleukin) (human, UniProt P60568 21-153, limits assumed).
T1 construct: Variant of human wt IL-2 with C145S (C125S on mature IL-2); also called IL-2 (Proleukin®); human IL-2 (Proleukin)
T1 sequence (P60568 other isoform, or with tags, fused parts or gaps limits assumed): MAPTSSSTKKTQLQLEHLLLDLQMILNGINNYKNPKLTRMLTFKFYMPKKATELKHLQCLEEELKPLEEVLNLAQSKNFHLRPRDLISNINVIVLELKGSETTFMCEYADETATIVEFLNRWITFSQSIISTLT
In words: ELISA, coated Proleukin, serially diluted supernatant.
The molecule B1 returned a 50% effective concentration (EC50) of 0.79 nM.

Molecule B2 gave a concentration giving a half-maximal response (EC50) of 0.5 nM.

Molecule B3 showed a 50% effective concentration (EC50) of 0.5 nM.

For B4, the EC50 was 0.5 nM.

B5 came in with an EC50 of 0.31 nM.

For B6, a half-maximal effect (EC50) was put at 0.35 nM.

The molecule B7 registered a concentration for a half-maximal effect (EC50) of 0.43 nM.

Turning to B8, the half-maximal effective concentration (EC50) stood at 0.65 nM.

B9 showed an EC50 of 0.34 nM.

In the case of B10, the EC50 came to 0.42 nM.

B11 showed a 50% effective concentration (EC50) of 0.73 nM.

Molecule B12 came in with an EC50 of 0.38 nM.

Molecule B13 gave a concentration for a half-maximal effect (EC50) of 0.36 nM.

On to B14, for which the midpoint of the response, the EC50, lay at 0.59 nM.

Consider B15, for which the EC50 was found to be 0.51 nM.

For B16, it took 1.39 nM to reach a half-maximal effect (EC50).

Turning to B17, the concentration giving a half-maximal response (EC50) came out at 0.54 nM.

For the molecule B18, the concentration for a half-maximal effect (EC50) came out at 0.34 nM.

B19 yielded an EC50 of 0.26 nM.

The next experiment has as its target T1, Proleukin® (aldesleukin). In words: ELISA, coated Proleukin, HEK293F supernatant 1:2. On the technique in general: An ELISA detects its analyte on a solid surface through an enzyme-linked reagent.
Experimental: Subsequently, hIL-2 binding efficiency of the antibodies present in the supernatants was determined using ELISA. In brief, ELISA plates (Maxisorp 96-well black microtiter plate) were coated overnight at 4° C. with 100p/well of Proleukin® (5 μg/ml PBS). ELISA plates were washed once with TBST (1×TBS/0.05% Tween 20) using a plate-washer (BioTek). […] After removal of the blocking buffer, plates were washed once with TBST using the plate washer. Supernatants were diluted 1:2 in blocking buffer and 50 μl transferred to the designated well of the ELISA plate. Each sample was present on three ELISA plates. The three plates were incubated at RT under gentle agitation. […] The other two plates were washed either every hour three times with TBST for 4 hours or washed every hour three times for 12 hours before adding the detection antibody. […] Luminescence signal was measured after 5 minutes incubation in the dark. […] All ELISA values are mean values based on two measurements.
For B1, the “ELISA value (Normal ELISA)” value worked out at 1360 luminescence signal, the “ELISA value (wash 3x every hour for 4 HRS)” value amounted to 1230 luminescence signal and the “ELISA value (wash 3x every hour for 12 HRS)” value worked out at 518 luminescence signal.

Regarding B2, the “ELISA value (Normal ELISA)” value was 4970 luminescence signal, the “ELISA value (wash 3x every hour for 4 HRS)” value is 4490 luminescence signal and the “ELISA value (wash 3x every hour for 12 HRS)” value was 873 luminescence signal.

B3: the “ELISA value (Normal ELISA)” value worked out at 1940 luminescence signal, the “ELISA value (wash 3x every hour for 4 HRS)” value stood at 1430 luminescence signal and the “ELISA value (wash 3x every hour for 12 HRS)” value came to 686 luminescence signal.

Turning to B4, the “ELISA value (Normal ELISA)” value is 5400 luminescence signal, the “ELISA value (wash 3x every hour for 4 HRS)” value came to 4880 luminescence signal and the “ELISA value (wash 3x every hour for 12 HRS)” value turned out to be 2210 luminescence signal.

With B5, the “ELISA value (Normal ELISA)” value amounted to 7640 luminescence signal, the “ELISA value (wash 3x every hour for 4 HRS)” value is 6360 luminescence signal and the “ELISA value (wash 3x every hour for 12 HRS)” value amounted to 1550 luminescence signal.

For the molecule B6, the “ELISA value (Normal ELISA)” value is 6050 luminescence signal, the “ELISA value (wash 3x every hour for 4 HRS)” value is 4430 luminescence signal and the “ELISA value (wash 3x every hour for 12 HRS)” value was 1630 luminescence signal.

Regarding B7, the “ELISA value (Normal ELISA)” value came to 3970 luminescence signal, the “ELISA value (wash 3x every hour for 4 HRS)” value is 3190 luminescence signal and the “ELISA value (wash 3x every hour for 12 HRS)” value came to 1200 luminescence signal.

Turning to B8, the “ELISA value (Normal ELISA)” value worked out at 2200 luminescence signal, the “ELISA value (wash 3x every hour for 4 HRS)” value stood at 1840 luminescence signal and the “ELISA value (wash 3x every hour for 12 HRS)” value came out at 892 luminescence signal.

Consider B9, for which the “ELISA value (Normal ELISA)” value was 12400 luminescence signal, the “ELISA value (wash 3x every hour for 4 HRS)” value was 10500 luminescence signal and the “ELISA value (wash 3x every hour for 12 HRS)” value amounted to 3500 luminescence signal.

In the case of B10, the “ELISA value (Normal ELISA)” value amounted to 3570 luminescence signal, the “ELISA value (wash 3x every hour for 4 HRS)” value was found to be 3050 luminescence signal and the “ELISA value (wash 3x every hour for 12 HRS)” value was 1080 luminescence signal.

As to B11, the “ELISA value (Normal ELISA)” value worked out at 2180 luminescence signal, the “ELISA value (wash 3x every hour for 4 HRS)” value was found to be 1990 luminescence signal and the “ELISA value (wash 3x every hour for 12 HRS)” value worked out at 705 luminescence signal.

Regarding B12, the “ELISA value (Normal ELISA)” value was determined as 10200 luminescence signal, the “ELISA value (wash 3x every hour for 4 HRS)” value was 9810 luminescence signal and the “ELISA value (wash 3x every hour for 12 HRS)” value was 2280 luminescence signal.

As to B13, the “ELISA value (Normal ELISA)” value was found to be 7180 luminescence signal, the “ELISA value (wash 3x every hour for 4 HRS)” value came to 7200 luminescence signal and the “ELISA value (wash 3x every hour for 12 HRS)” value came out at 2540 luminescence signal.

With B14, the “ELISA value (Normal ELISA)” value was 2770 luminescence signal, the “ELISA value (wash 3x every hour for 4 HRS)” value was 1880 luminescence signal and the “ELISA value (wash 3x every hour for 12 HRS)” value is 674 luminescence signal.

As to B15, the “ELISA value (Normal ELISA)” value is 4500 luminescence signal, the “ELISA value (wash 3x every hour for 4 HRS)” value stood at 4580 luminescence signal and the “ELISA value (wash 3x every hour for 12 HRS)” value was determined as 1310 luminescence signal.

Regarding B16, the “ELISA value (Normal ELISA)” value was determined as 3050 luminescence signal, the “ELISA value (wash 3x every hour for 4 HRS)” value turned out to be 2820 luminescence signal and the “ELISA value (wash 3x every hour for 12 HRS)” value was 1140 luminescence signal.

Turning to B17, the “ELISA value (Normal ELISA)” value is 8060 luminescence signal, the “ELISA value (wash 3x every hour for 4 HRS)” value was determined as 7320 luminescence signal and the “ELISA value (wash 3x every hour for 12 HRS)” value was 3660 luminescence signal.

As to B18, the “ELISA value (Normal ELISA)” value came to 5850 luminescence signal, the “ELISA value (wash 3x every hour for 4 HRS)” value was 5120 luminescence signal and the “ELISA value (wash 3x every hour for 12 HRS)” value worked out at 1730 luminescence signal.

Turning to B19, the “ELISA value (Normal ELISA)” value amounted to 6170 luminescence signal, the “ELISA value (wash 3x every hour for 4 HRS)” value stood at 4640 luminescence signal and the “ELISA value (wash 3x every hour for 12 HRS)” value came to 1250 luminescence signal.
